Target: biotinylated gp120 165-182 peptide (HIV-1 (AE.A244))
Experiment: BLI

B1: CH59 unmutated ancestor (CH59-UA) Fab (Fab, V domains shown)
VH: EVQLVESGGGLVQPGRSLRLSCAASGFTFDDYAMHWVRQAPGKGLEWVSGISWNSGSIGYADSVKGRFTISRDNAKNSLYLQMNSLRAEDTALYYCAKDSPRGELPFDYWGQGTLVTVSS
VL: SYELTQPPSVSVSPGQTARITCSGDALPKKYAYWYQQKSGQAPVLVIYEDSKRPSGIPERFSGSSSGTMATLTISGAQVEDEADYYCYSTDSSGNHRVFGGGTKLTVL
- Kd: 500 nM
